B1: decameric HA-1^R peptide VLRDDLLEAR (peptide)
peptide: VLRDDLLEAR
notes: synthetic peptide; also called Peptide No. 18
B2: nonameric HA-1^R peptide KECVLRDDL (peptide)
peptide: KECVLRDDL
notes: synthetic peptide; also called Peptide No. 8
B3: HA-1^H/R polymorphic region peptide No. 14, CVLRDDLLE (peptide)
peptide: CVLRDDLLE
notes: synthetic peptide; also called nonameric HA-1^R peptide
B4: peptide ECVLRDDLL (peptide)
peptide: ECVLRDDLL
notes: synthetic peptide; also called Peptide No. 12; nonameric HA-1^R peptide
B5: HA-1^H/R polymorphic region peptide No. 2, EKLKECVLR (peptide)
peptide: EKLKECVLR
notes: as for B3
B6: HA-1^H/R polymorphic region peptide No. 6, LKECVLRDD (peptide)
peptide: LKECVLRDD
notes: as for B3
B7: HA-1^H/R polymorphic region peptide No. 20, LRDDLLEAR (peptide)
peptide: LRDDLLEAR
notes: as for B3
B8: HA-1^H/R polymorphic region peptide No. 22, RDDLLEARR (peptide)
peptide: RDDLLEARR
notes: as for B3
B9: HA-1^H/R polymorphic region peptide No. 4, KLKECVLRD (peptide)
peptide: KLKECVLRD
notes: as for B3

What is called IC50 is the concentration that gives 50% inhibition. A low value points to greater potency.

The first assay has as its target HLA-A3 on HLA typed EBV-LCLs (human). In words: cell-based competition on acid-treated EBV-LCLs against 150 nM fluorescent reference peptide, flow cytometry. Background: Flow cytometry measures light scatter and fluorescence of single cells or particles in a stream.
Experimental: (§1) Immediately after mild acidic treatment, the cells were washed with 12 ml Iscove's modified Dulbecco's medium (IMDM, Bio Whittaker, Belgium) containing 2% FCS and resuspended in IMDM containing 2% FCS, 1.5 μg/ml β2 microglobulin (Sigma, St. Louis, Mo., US). […] The mean fluorescence expressed by the cells was determined by a FACScalibur flow cytometer (Becton-Dickinson, St. Louis, Mo., US).
As to KQSSKALQR [HLA-A3 binder-positive control peptide KQSSKALQR], the IC50 is 9.4 µM. This counts as single-digit micromolar.

Molecule B1 displayed an IC50 of 37.5 µM.

Another assay addresses HLA-B60 on HLA typed EBV-LCLs (human). Described as above.
Experimental: as §1
In turn, B2 displayed an IC50 of 3.9 µM.

The next assay deals with HLA-B7 on HLA typed EBV-LCLs (human). In words: cell-based competition HLA peptide binding assay, flow cytometry.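 Note: cells given mild acid treatment, then held in medium with 2% FCS and β2 microglobulin, read out as mean cell fluorescence.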
Experimental: as §1
Turning to B3, the binding result was “no binding (tested: 100 to 0.78 µM)”.

Take B4: the binding result was “no binding (tested: 100 to 0.78 µM)”.

In the case of B5, the binding result is listed as “no binding (tested: 100 to 0.78 µM)”.

In the case of B6, the binding result is “no binding (tested: 100 to 0.78 µM)”.

On to B7, for which the binding result is on record as “no binding (tested: 100 to 0.78 µM)”.

Turning to B8, the binding result was “no binding (tested: 100 to 0.78 µM)”.

As to B9, the binding result is on record as “no binding (tested: 100 to 0.78 µM)”.

As to B2, the binding result is on record as “no binding (tested: 100 to 0.78 µM)”.

A further assay has as its target HLA-A1 on HLA typed EBV-LCLs (human). The description is as above.
Experimental: as §1
On to B3, for which the binding result is “no binding (tested: 100 to 0.78 µM)”.

For the molecule B4, the binding result is given as “no binding (tested: 100 to 0.78 µM)”.

Consider B5, for which the binding result is “no binding (tested: 100 to 0.78 µM)”.

For B6, the binding result is reported as “no binding (tested: 100 to 0.78 µM)”.

In the case of B7, the binding result is listed as “no binding (tested: 100 to 0.78 µM)”.

For the molecule B8, the binding result is “no binding (tested: 100 to 0.78 µM)”.

As to B9, the binding result is given as “no binding (tested: 100 to 0.78 µM)”.

Turning to B2, the binding result was “no binding (tested: 100 to 0.78 µM)”.

For a further assay, the target named is HLA-A24 on HLA typed EBV-LCLs (human). The description is as above.
Experimental: as §1
Take B3: the binding result was “no binding (tested: 100 to 0.78 µM)”.

For B4, the binding result was “no binding (tested: 100 to 0.78 µM)”.

On to B5, for which the binding result was “no binding (tested: 100 to 0.78 µM)”.

For B6, the binding result is recorded as “no binding (tested: 100 to 0.78 µM)”.

Regarding B7, the binding result was “no binding (tested: 100 to 0.78 µM)”.

Regarding B8, the binding result is “no binding (tested: 100 to 0.78 µM)”.

B9: the binding result is on record as “no binding (tested: 100 to 0.78 µM)”.

Consider B2, for which the binding result was “no binding (tested: 100 to 0.78 µM)”.

A further assay has as its target HLA-A11 on HLA typed EBV-LCLs (human). The description is as above.
Experimental: as §1
In the case of B3, the binding result is reported as “no binding (tested: 100 to 0.78 µM)”.

In the case of B4, the binding result was “no binding (tested: 100 to 0.78 µM)”.

Take B5: the binding result is reported as “no binding (tested: 100 to 0.78 µM)”.

Turning to B6, the binding result is “no binding (tested: 100 to 0.78 µM)”.

B7: the binding result is listed as “no binding (tested: 100 to 0.78 µM)”.

B8: the binding result is listed as “no binding (tested: 100 to 0.78 µM)”.

Regarding B9, the binding result was “no binding (tested: 100 to 0.78 µM)”.

In the case of B2, the binding result is “no binding (tested: 100 to 0.78 µM)”.

The values above are taken from patent US20080206268A1 (RIJKSUNIVERSITEIT TE LEIDEN, published 2008).
